This passage reports stoichiometry N results from article PMC10647799.

Assay [1] deals with Asterias forbesii ferritin (AfFer) (Asterias forbesii). Briefly: native gel or EMSA; native-PAGE and SDS-PAGE of purified AfFer; subunits to the 24-mer cage.
For assay [2] the target is unchanged. Description: crystal structure; hanging drop vapour diffusion, 20 °C, 12.0 µM ferritin in 5.0 mM Tris-HCl; crystals with body-centered tetragonal (BCT) lattice; subunits in the 24-mer cage and cage to cage contacts.

For orientation: stoichiometry N means the number of molecules, sites or subunits per partner or assembly. Take “Asterias forbesii ferritin (AfFer) (natural protein)”: the stoichiometry N in assay [1] and in assay [2] was 24 in each case.
